Laboratory results: patent US20240270846A1

Biological target: recombinant human CD3 (human) (UniProt P07766)
Assay: SPR (Biacore T200, 37 degrees C), antibody captured by anti-human Fc, antigen as analyte, 1:1 model

Sequence of recombinant human CD3 (human) (P07766 23-126): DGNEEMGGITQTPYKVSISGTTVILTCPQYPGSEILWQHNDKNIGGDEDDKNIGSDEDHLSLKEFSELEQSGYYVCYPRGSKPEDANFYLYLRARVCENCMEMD

Row | Binder | Kd [nM] | koff [s⁻¹] | kon [M⁻¹ s⁻¹]
1 | GPC3/CtrlxCD3 trispecific antibody (protein, from a related filing, part only, left off: another chain or arm of the molecule; a dimerising Fc or GST) VH 1: QVQLVESGGGLVQPGRSLRLSCAASGFTFSNAWMHWVRQAPGKGLEWVAQIKDRANSYNTYYAESVKGRFTISRDDSKNSIYLQMNSLKTEDTAVYYCRYVHYTTYAGSSFSYGVDAWGQGTTVTVSS VL 1: DIVMTQSPLSLPVTPGEPASISCRSSQPLVHSNRNTYLHWYQQKPGQAPRLLIYKVSNRFSGVPDRFSGSGSGTDFTLKISRVEAEDVGVYYCGQGTQVPYTFGQGTKLEIK VH 2: QVQLVQSGAEVKKPGASVTVSCKASGYTFTDYEMHWIRQPPGEGLEWIGAIDGPTPDTAYSEKFKGRVTLTADKSTSTAYMELSSLTSEDTAVYYCTRFYSYTYWGQGTLVTVSS VL 2: DIVMTQSPLSLPVTPGEPASISCRSSQPLVHSNRNTYLHWYQQKPGQAPRLLIYKVSNRFSGVPDRFSGSGSGTDFTLKISRVEAEDVGVYYCGQGTQVPYTFGQGTKLEIK | 17.8 | 0.00151 | 85000
2 | Ctrl/CtrlxCD3 trispecific antibody (protein, part only; not given: Control arm variable domains, constant regions, part only) VH: QVQLVESGGGLVQPGRSLRLSCAASGFTFSNAWMHWVRQAPGKGLEWVAQIKDRANSYNTYYAESVKGRFTISRDDSKNSIYLQMNSLKTEDTAVYYCRYVHYTTYAGSSFSYGVDAWGQGTTVTVSS VL: DIVMTQSPLSLPVTPGEPASISCRSSQPLVHSNRNTYLHWYQQKPGQAPRLLIYKVSNRFSGVPDRFSGSGSGTDFTLKISRVEAEDVGVYYCGQGTQVPYTFGQGTKLEIK | 17.5 | 0.00147 | 83700
